Results from patent publication US20240425588A1 (published 2024).

Target: Cynomolgus TIGIT
Experiment: Biacore

Kd: 69.5 nM
B1: 50C2 Humanized (Hu) (antibody, V domains shown)
VH: QVQLQESGPGLVKPSETLSLTCTVSGFSLTNYNINWIRQPPGKGLEWIGVIWTGGGTNYNSAFMSRVTISKDTSKNQVSLKLSSVTAADTAVYYCVREAYFSNYGFYFDYWGQGTLVTVSS
VL: DIQMTQSPSSLSASVGDRVTITCSASSSISSNYLHWYQQKPGKAPKLLIYRTSNLASGVPSRFSGSGSGTDFTLTISSLQPEDFATYYCQQGSSIPRTFGGGTKVEIK
